Laboratory results from patent US12139520B2 (priority 2020, dated 2024).
Residue numbers refer to the chain shown, from its start. Numbered stars: 1 amine (or outer) side, 2 acyl side, 3 side chain; on linkers, the order of the positions; unused ones are H or OH. Bridge positions count the residues as written; N and C are the ends. Square brackets hold non-standard residues; d marks the D form. Side chains are listed from the residue outwards. Ends that are not written are not given here. * marks the point of attachment. C20 diacid = O=C(O)CCCCCCCCCCCCCCCCCCC(=O)*; γGlu = O=C(O)[C@H](CCC(=O)[*:2])N[*:1]; Hyp = O=C(O)[C@@H]1C[C@@H](O)CN1; Trx = NC[C@H]1CC[C@H](C(=O)O)CC1; Cit = NC(=O)NCCC[C@H](N)C(=O)O; AEEA = NCCOCCOCC(=O)O

T1: hAMY3R (human, UniProt P30988)
T1 sequence 1: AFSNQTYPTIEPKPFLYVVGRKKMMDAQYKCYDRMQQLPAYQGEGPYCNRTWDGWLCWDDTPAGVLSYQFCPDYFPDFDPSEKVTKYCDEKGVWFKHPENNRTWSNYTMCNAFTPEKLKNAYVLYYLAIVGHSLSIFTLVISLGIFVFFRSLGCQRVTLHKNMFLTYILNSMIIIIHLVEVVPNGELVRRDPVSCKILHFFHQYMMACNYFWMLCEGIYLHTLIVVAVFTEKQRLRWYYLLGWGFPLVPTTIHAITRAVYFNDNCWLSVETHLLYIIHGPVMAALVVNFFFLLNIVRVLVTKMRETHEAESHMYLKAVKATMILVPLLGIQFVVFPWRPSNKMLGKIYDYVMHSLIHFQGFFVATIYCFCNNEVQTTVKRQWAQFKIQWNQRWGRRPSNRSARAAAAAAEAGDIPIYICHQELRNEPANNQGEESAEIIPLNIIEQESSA
T1 sequence 2: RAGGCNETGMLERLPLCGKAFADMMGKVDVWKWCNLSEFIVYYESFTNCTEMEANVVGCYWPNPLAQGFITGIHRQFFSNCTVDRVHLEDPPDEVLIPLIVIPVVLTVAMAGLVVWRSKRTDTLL

B1: SEQ ID NO: 247 (peptide)
peptide: KCNTSTCTVA[Cit]LADQITQFSDKDKANVSPPTEVGPNS[Hyp]-NH2
modifications: disulfide 2-7 (inferred); ends not checked
B2: SEQ ID NO: 229 (peptide)
peptide: GCRFGTCTVQRLAHQIYQFTDKDKDNVAPRSNIGPQG[Hyp]-NH2
modifications: disulfide 2-7 (inferred); ends not checked
B3: SEQ ID NO: 245 (peptide)
peptide: RCNASTCTVN[Cit]LADQITQFSNKDKAQVSPPTEVGPNS[Hyp]-NH2
modifications: disulfide 2-7 (inferred); ends not checked
B4: SEQ ID NO: 227 (peptide)
peptide: GCRTGTCTVQRLAHQIHQFTNKDKDNVAPRSKISPQT[Hyp]-NH2
modifications: disulfide 2-7 (inferred); ends not checked
B5: SEQ ID NO: 238 (peptide)
peptide: GCRTGTCTVQRLAHQIYQFTNKDKDNVAPRSKISPQF[Hyp]-NH2
modifications: disulfide 2-7 (inferred); ends not checked
B6: SEQ ID NO: 222 (peptide)
peptide: GCRMGTCTVQRLAHQIYQFTDKDKDNVAPSSKISPQT[Hyp]-NH2
modifications: disulfide 2-7 (inferred); ends not checked
B7: SEQ ID NO: 23 (peptide)
peptide: KCNTATCTVQRLAHQIYQFADKDKDNVAPPTNVGSNG[Hyp]-NH2
modifications: disulfide 2-7 (inferred); ends not checked
B8: SEQ ID NO: 231 (peptide)
peptide: {C20 diacid-γGlu}-KCNTYTCTVQRLAHQIYQFTDKDKDNVAPPTNVGSNG[Hyp]-NH2
modifications: disulfide 2-7 (inferred); ends not checked
B9: SEQ ID NO: 243 (peptide)
peptide: KCNTATCTVQ[Cit]LAAQIYQFTDKDKDNVAPPTNVGSNG[Hyp]-NH2
modifications: disulfide 2-7 (inferred); ends not checked
B10: SEQ ID NO: 219 (peptide)
peptide: GCRTGTCTVQRLAHQIYQFTNKDKDNVAPRSKISPQH[Hyp]-NH2
modifications: disulfide 2-7 (inferred); ends not checked
B11: SEQ ID NO: 232 (peptide)
peptide: GCRTGTCTVQRLAHQIYQFTNKDKDNVAPRSKISPQQ[Hyp]-NH2
modifications: disulfide 2-7 (inferred); ends not checked
B12: SEQ ID NO: 240 (peptide)
peptide: GCRFGTCTVQRLAHQIYQFTDKDKDNVAPSSKISPQT[Hyp]-NH2
modifications: disulfide 2-7 (inferred); ends not checked
B13: SEQ ID NO: 220 (peptide)
peptide: GCRTGTCTVQRLAHQIYQFTNKDKDNVAPRSKISPQW[Hyp]-NH2
modifications: disulfide 2-7 (inferred); ends not checked
B14: SEQ ID NO: 24 (peptide)
peptide: KCNTATCTVQRLAHQIYQFTAKDKDNVAPPTNVGSNG[Hyp]-NH2
modifications: disulfide 2-7 (inferred); ends not checked
B15: SEQ ID NO: 221 (peptide)
peptide: {C20 diacid-Trx-γGlu-AEEA-AEEA}-K([AEEA-AEEA-γGlu-Trx-C20 diacid])CNTATCTVQRLAEQIYQFTDKDKDNVAPPTNVGSNG[Hyp]
modifications: disulfide 2-7 (inferred); ends not checked
B16: SEQ ID NO: 234 (peptide)
peptide: KCNTATCATQRLANFLVQFTDKDKDNVAPRSKISPQGY
B17: SEQ ID NO: 228 (peptide)
peptide: GCRTGTCTVQRLAHQIHQFTDKDKDNVAPRSKISPQT[Hyp]-NH2
modifications: disulfide 2-7 (inferred); ends not checked
B18: SEQ ID NO: 218 (peptide)
peptide: GCRTGTCTVQRLAHQIYQFTDKFKDNVAPRSKISPQA[Hyp]-NH2
modifications: disulfide 2-7 (inferred); ends not checked
B19: SEQ ID NO: 25 (peptide)
peptide: KCNTATCTVQRLAHQIYQFTDKDADNVAPPTNVGSNG[Hyp]-NH2
modifications: disulfide 2-7 (inferred); ends not checked
B20: SEQ ID NO: 246 (peptide)
peptide: KCNTATCTVQ[Cit]LAHQIAQFTDKDKDNVAPPTNVGSNG[Hyp]-NH2
modifications: disulfide 2-7 (inferred); ends not checked
B21: SEQ ID NO: 223 (peptide)
peptide: {C20 diacid-γGlu}-GCRFGTCTVQRLAHFLYQFTDKDKDNVAPRTKVGSNGY-NH2
modifications: disulfide 2-7 (inferred); ends not checked
B22: SEQ ID NO: 244 (peptide)
peptide: KCNTSTCTVA[Cit]LADQITQFSNKDKAQVSPPTEVGPNS[Hyp]-NH2
modifications: disulfide 2-7 (inferred); ends not checked
B23: SEQ ID NO: 226 (peptide)
peptide: GCRTGTCTVQRLAHQIYQFTNKDKDNVAPRSKISPQTW
B24: SEQ ID NO: 242 (peptide)
peptide: B23 peptide with W38R
B25: SEQ ID NO: 235 (peptide)
peptide: B23 peptide with N21D, D23F, W38P
B26: SEQ ID NO: 230 (peptide)
peptide: B23 peptide with N21D, D23F, W38Y
B27: SEQ ID NO: 237 (peptide)
peptide: B23 peptide with W38M
B28: SEQ ID NO: 239 (peptide)
peptide: B23 peptide with N21D, D23F, W38F
B29: SEQ ID NO: 241 (peptide)
peptide: B23 peptide with N21D, D23F, W38A
B30: SEQ ID NO: 225 (peptide)
peptide: {C20 diacid-γGlu}-KCNTLTCTVQRLAHQIYQFTDKDKDNVAPPTNVGSNG[Hyp]-NH2
modifications: disulfide 2-7 (inferred); ends not checked
B31: SEQ ID NO: 248 (peptide)
peptide: KCNTATCTVQ[Cit]LAHQIYQFTDKDKDNVAPRTKVGSNG[Hyp]-NH2
modifications: disulfide 2-7 (inferred); ends not checked
B32: SEQ ID NO: 233 (peptide)
peptide: KCNTATCTVQRLAEQIYQFTDKDKDNVAPPTNVGSNG[Hyp]-NH2
modifications: disulfide 2-7 (inferred); not fully specified (N-terminus); ends not checked; also: N-terminal Lys carries two C20DA-OEG-γGlu-OEG arms ((...)2-K)
B33: SEQ ID NO: 224 (peptide)
peptide: GCRTGTCTVQRLAHQIYQFTDKDKDNVAPRSNVSPQG[Hyp]-NH2
modifications: disulfide 2-7 (inferred); ends not checked
B34: SEQ ID NO: 236 (peptide)
peptide: GCRTGTCTVQRLAHQIYQFTDKFKDNVAPRSKISPQM[Hyp]-NH2
modifications: disulfide 2-7 (inferred); ends not checked

These binders were tested against T1, hAMY3R (assay: cell-based or functional assay).

Binder | hAMY3R EC50 (cAMP) [nM]
B1 | 0.004
B2 | 0.207
B3 | 0.017
B4 | 0.187
B5 | 0.235
B6 | 0.184
B7 | 0.008
B8 | 0.209
B9 | 0.018
B10 | 0.171
B11 | 0.213
B12 | 0.24
B13 | 0.182
B14 | 0.008
B15 | 0.184
B16 | 0.227
B17 | 0.205

Binder | hAMY3R EC50 (cAMP) [nM]
B18 | 0.169
B19 | 0.008
B20 | 0.01
B21 | 0.186
B22 | 0.006
B23 | 0.186
B24 | 0.248
B25 | 0.233
B26 | 0.208
B27 | 0.235
B28 | 0.236
B29 | 0.242
B30 | 0.186
B31 | 0.027
B32 | 0.22
B33 | 0.186
B34 | 0.234

The binders below were run against hAM1R (human, UniProt Q16602) (assay: cell-based or functional assay).

Binder | hAM1R EC50 (cAMP) [nM]
B1 | > 5000
B2 | 2980
B3 | > 5000
B4 | 4570
B5 | > 5000
B6 | > 5000
B7 | > 5000
B8 | > 5000
B9 | 3340
B10 | 4250
B11 | > 5000
B12 | > 5000
B13 | > 5000
B14 | > 5000
B15 | > 5000
B16 | > 5000
B17 | > 5000

Binder | hAM1R EC50 (cAMP) [nM]
B18 | > 5000
B19 | > 5000
B20 | > 5000
B21 | 47.7
B22 | > 5000
B23 | > 5000
B24 | > 5000
B25 | 1420
B26 | > 5000
B27 | 4250
B28 | > 5000
B29 | 2290
B30 | > 5000
B31 | 3590
B32 | > 5000
B33 | 2980
B34 | 2240
